From patent US12029792B2, “Stereocomplexes for the delivery of anti-cancer agents” (priority 2018, dated 2024)

Key:
CNE nasopharyngeal tumor = experiment: Subcutaneous CNE nasopharyngeal tumor model; type: in vivo, mice; settings: four injections once per week; 4 mg/kg DM1 (complex also 26 mg/kg DTX)
Procedure: Antitumor efficacy and toxicity for the stereocomplex and DM1-containing prodrug were assessed in a subcutaneous CNE nasopharyngeal tumor model when the treatment is delivered via intravenous injection. Cell suspensions were injected subcutaneously on the backs of mice to establish the tumor model. When tumor volume reached approximately 100 mm^3, groups of tumor bearing mice (n=5) were injected with the complex through the tail vein.

[1] = system: MiA PaCa-2 pancreatic tumor; experiment: Subcutaneous MiA PaCa-2 pancreatic tumor model; type: in vivo, mice; settings: four injections for D-DM1, two injections for the stereocomplex
Procedure: In vivo antitumor efficacy of the complex was assessed in a subcutaneous MiA PaCa-2 pancreatic tumor model. MiA PaCa-2 cell suspensions were injected subcutaneously on the backs of mice to establish the tumor model. When tumor volume reached approximately 140 mm^3, groups of tumor bearing mice (n=5) were injected through the tail vein on day 1 and day 14 of an approximately 40-day trial.
Antitumor efficacy and toxicity for the stereocomplex and DM1-containing prodrug were assessed in a subcutaneous MiaPaCa-2 pancreatic tumor model. MiA PaCa-2 cell suspensions were injected subcutaneously on the backs of mice to establish the tumor model. When tumor volume reached approximately 140 mm^3, groups of tumor-bearing mice (n=5) were injected with treatment through the tail vein.

[2] = In vitro release of DM1 by dialysis with or without GSH; type: physicochemical
Procedure: The release of poly-DM1 was performed by dialysis in phosphate buffered saline (pH 7.4, containing 0.2% w/v polysorbate 80) with or without 10 mM glutathione (GSH). Briefly, 1 mL of the poly-DM1 formulation with the concentration of DM1 adjusted to 0.5 mg/mL by PBS was placed in a dialysis bag (MWCO=3.5k Da), which was sealed. After being immediately immersed in 10 mL release medium, the sample was incubated at 37° C. At scheduled time intervals (4, 8, 24, 48 h), 1 mL of the external release medium was taken out and replenished with an equal volume of fresh medium. All released samples were freeze-dried and the amount of released DM1 was determined using HPLC measurements as described previously.
Release of DM1 from the stereocomplex over time, with and without glutathione (GSH) was measured at pH 7.4; results are presented in FIG. 16B. DM1 is released from the isolated prodrug most quickly in the presence of GSH (squares) and more slowly from the stereocomplex (circles). In the absence of glutathione, DM1 is essentially not released from either the isolated prodrug or the complex (triangles and inverted triangles at 0% cumulative release). Thus, conjugation of DM1 with a redox-sensitive disulfide linker prohibits premature release of DM1 without GSH.

[3] = Tolerance of formulations in mice without tumors; type: in vivo; settings: healthy mice, tail vein days 1, 8, 15, 22
Procedure: Healthy mice (n=5 for each treatment group) were injected on days 1, 8, 15, and 22 of a 28-day trial in the tail vein with either the DM1-containing prodrug at 4 mg/kg, the DM1-containing prodrug plus mPEG-PLLA at 4 mg/kg, or the stereocomplex with 4 mg/kg DM1 and 27 mg/kg DTX per injection and body weight was monitored to determine tolerance of the treatments. […] Healthy mice (n=5 for each treatment group) were injected with complex at 3.6 mg/kg DM1 once/week for total three injections, at 5 mg/kg DM1 once/two weeks for total two injections and at 7 mg/kg DM1 only once, respectively.

Q: Which results are given for mPEG-PDLA-SS-DM1 [D-DM1]?
A: tumor volume (CNE nasopharyngeal tumor): tumor volume increased significantly; antitumor effect (tumor volume) [1]: almost the same antitumor effect; toxicity: mouse death and body weight [1]: induced mouse death and obvious body weight decrease; cumulative release of DM1 ([2]; pH 7.4, in the absence of glutathione): 0%; Release of DM1 over time ([2]; pH 7.4, in the presence of GSH (10 mM)): most quickly; tail swelling and ulceration ([3]; 4 mg/kg DM1): two mice showed tail swelling and ulceration on days 8-14; Body weight ([3]; 4 mg/kg DM1 (stereocomplex also 27 mg/kg DTX), 28-day trial): increased slightly
